Results on 1 protein are retold here after article PMC6511404 (Biochemistry, 2019).

The data set concerns the molecule itself. Briefly: SEC.

B1: recombinant N-terminal cleavable His-tagged E. coli enolase (enzyme)
chain: MSKIVKIIGREIIDSRGNPTVEAEVHLEGGFVGMAAAPSGASTGSREALELRDGDKSRFLGKGVTKAVAAVNGPIAQALIGKDAKDQAGIDKIMIDLDGTENKSKFGANAILAVSLANAKAAAAAKGMPLYEHIAELNGTPGKYSMPVPMMNIINGGEHADNNVDIQEFMIQPVGAKTVKEAIRMGSEVFHHLAKVLKAKGMNTAVGDEGGYAPNLGSNAEALAVIAEAVKAAGYELGKDITLAMDCAASEFYKDGKYVLAGEGNKAFTSEEFTHFLEELTKQYPIVSIEDGLDESDWDGFAYQTKVLGDKIQLVGDDLFVTNTKILKEGIEKGIANSILIKFNQIGSLTETLAAIKMAKDAGYTAVISHRSGETEDATIADLAVGTAAGQIKTGSMSRSDRVAKYNQLIRIEEALGEKAPYNGRKEIKGQA
Regarding B1, the stoichiometry N (commonly a count of units in the complex or per binding partner) is 2.
